Earlier results, collected in patent US20220257789A1, “ANTI-TISSUE FACTOR ANTIBODY-DRUG CONJUGATES AND RELATED METHODS” (Iconic Therapeutics, Inc., priority 2019, published 2022).
Like-named read-outs stand apart in the source and are kept apart here.

Legend:
mTF = target: T1, mTF (Mus musculus, UniProt P20352); details: binds when a KD value can be measured on a ForteBio Octet
T1 sequence (P20352 29-294): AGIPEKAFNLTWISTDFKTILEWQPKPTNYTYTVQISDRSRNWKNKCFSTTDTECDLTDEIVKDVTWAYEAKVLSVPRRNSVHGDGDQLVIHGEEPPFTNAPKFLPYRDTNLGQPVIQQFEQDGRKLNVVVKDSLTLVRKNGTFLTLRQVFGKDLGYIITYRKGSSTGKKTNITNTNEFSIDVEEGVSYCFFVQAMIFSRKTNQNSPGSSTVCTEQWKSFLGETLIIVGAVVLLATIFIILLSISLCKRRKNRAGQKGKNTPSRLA

Substance | binding to mouse TF (mTF) | dose limiting toxicities (6 mg/kg) | toxicity (dose of 2.2 mg/kg (de Bono et al. 2019)) | toxicity (dose of 3 mg/kg) | ALT and AST (in vivo)
humanized 5G9: humanized 5G9 anti-TF antibody described in Ngo et al., 2007; VH SEQ ID NO: 830, VL SEQ ID NO: 831 | do not bind to mouse TF |  |  |  | 
tisotumab vedotin: anti-TF fully human monoclonal antibody conjugated to MMAE with a protease-cleavable linker (Genmab) |  | grade 4 neutropenia and severe skin irritation and skin ulceration | dose limiting toxicity (e.g., neutropenia) | Neutropenia and skin toxicity | transient ALT and AST elevations
